# Experiments:
# [1] = target: TraB C-terminal domain (TraBCT) (E. coli (plasmid pKM101)); experiment: SAXS; beamline ID02 (ESRF), buffer GFsol, 20°C; TraBCT 2.1-8.2 mg/ml, LvhB4 2-8.9 mg/ml; molecular mass from forward scattering I(0), absolute calibration with water; self-association
# [2] = target: TraB C-terminal domain (TraBCT) (E. coli (plasmid pKM101)); experiment: SEC
# [3] = target: TraB full-length (TraBFL), the VirB4 homolog encoded by the E. coli pKM101 plasmid, membrane-extracted form (E. coli (plasmid pKM101)) (UniProt P41067); experiment: SEC
# [4] = target: TraB full-length (TraBFL), the VirB4 homolog encoded by the E. coli pKM101 plasmid, membrane-extracted form (E. coli (plasmid pKM101)) (UniProt P41067); experiment: SAXS; beamline X33 (EMBL-Hamburg), buffer GFmb; TraBFL 3-13.5 mg/ml, TraBNT 1.3-8.2 mg/ml; molecular mass from forward scattering I(0), calibrated with BSA; self-association
# [5] = target: TraB N-terminal domain (TraBNT), membrane-extracted form (E. coli (plasmid pKM101)) (UniProt P41067); experiment: SEC
# [6] = target: TraB N-terminal domain (TraBNT), membrane-extracted form (E. coli (plasmid pKM101)) (UniProt P41067); experiment: SAXS; beamline X33 (EMBL-Hamburg), buffer GFmb; TraBFL 3-13.5 mg/ml, TraBNT 1.3-8.2 mg/ml; molecular mass from forward scattering I(0), calibrated with BSA; self-association
substance,measurement,setting,value
TraB C-terminal domain (TraBCT) (domain or fragment),stoichiometry N,[1],2
same,stoichiometry N,[2],2
"TraB full-length (TraBFL), the VirB4 homolog encoded by the E. coli pKM101 plasmid, membrane-extracted form (from UniProt P41067 1-475) (natural protein)",stoichiometry N,[3],2
same,stoichiometry N,[4],2
"TraB N-terminal domain (TraBNT), membrane-extracted form (from UniProt P41067 1-442) (domain or fragment)",stoichiometry N,[5],2
same,stoichiometry N,[6],2
